In US20240287175A1:

Molecular target: mouse CD22 (mouse) (UniProt P35329)
Test: cell-based or functional assay

Sequence of UniProt P35329 (P35329 22-868): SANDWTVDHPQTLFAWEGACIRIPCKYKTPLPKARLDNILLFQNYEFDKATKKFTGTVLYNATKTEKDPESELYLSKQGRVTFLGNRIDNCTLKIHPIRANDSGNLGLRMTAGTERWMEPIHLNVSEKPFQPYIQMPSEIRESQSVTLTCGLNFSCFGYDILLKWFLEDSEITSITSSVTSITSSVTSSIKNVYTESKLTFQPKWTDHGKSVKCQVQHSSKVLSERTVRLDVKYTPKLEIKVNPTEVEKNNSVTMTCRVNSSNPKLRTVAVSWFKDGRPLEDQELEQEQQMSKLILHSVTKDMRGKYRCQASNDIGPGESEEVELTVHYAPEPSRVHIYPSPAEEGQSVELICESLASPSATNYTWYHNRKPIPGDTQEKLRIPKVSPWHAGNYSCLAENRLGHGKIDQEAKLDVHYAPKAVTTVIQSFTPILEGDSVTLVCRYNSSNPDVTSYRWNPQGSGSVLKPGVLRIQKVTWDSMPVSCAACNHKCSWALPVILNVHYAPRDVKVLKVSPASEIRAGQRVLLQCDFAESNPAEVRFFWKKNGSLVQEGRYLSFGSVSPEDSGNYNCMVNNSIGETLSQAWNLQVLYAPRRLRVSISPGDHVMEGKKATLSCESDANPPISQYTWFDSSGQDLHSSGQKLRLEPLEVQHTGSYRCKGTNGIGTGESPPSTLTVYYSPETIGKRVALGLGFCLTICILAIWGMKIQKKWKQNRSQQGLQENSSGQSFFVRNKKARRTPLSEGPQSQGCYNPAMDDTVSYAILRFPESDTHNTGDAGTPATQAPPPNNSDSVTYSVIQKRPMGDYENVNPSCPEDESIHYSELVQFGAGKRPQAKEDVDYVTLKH

receptor occupancy necessary to achieve IC50 in the pSHP1/SHP1 assay: < 50%
Substance: mouse monoclonal anti-CD22 antibody (Cy34, BioXCell)
